Laboratory results taken from US7056679 (ANTYRA, dated 2006).

T1: DGI-2 polypeptide (UniProt Q15004 1-111, limits assumed)
T1 construct: Soluble recombinant protein coated at 500 ng/well; vector tag of pIVEX2.3-MCS not described for this construct; also called KIAA0101
T1 sequence (looked up): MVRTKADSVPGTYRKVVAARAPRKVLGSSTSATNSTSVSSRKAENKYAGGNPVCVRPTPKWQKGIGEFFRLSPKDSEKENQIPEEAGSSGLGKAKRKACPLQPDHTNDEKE


What was measured:
Assay in all cases: phage ELISA
DGI-2 polypeptide = molecular target: T1, DGI-2 polypeptide
Description: (§1) For analysis of individual target binders, colonies were picked and phage prepared as described above using helper phage, M13KO7. Ninety-six-well microtiter plates were coated with 500 ng/well of specific target protein, 500 ng/well lactate dehydrogenase (LDH) irrelevant or non-specific target, 500 ng/well of positive control antibody raised against ETAG, and negative control of non-fat milk powder-PBS 2% at 4° C. overnight. Plates were then blocked with 350 microliters/well PBS containing 2% non-fat milk for 1 hr at room temperature. One hundred microliters per well of phage from isolated clones were added and plates were incubated at room temperature for 2 hr after centrifuging samples for 20 minutes at 3500 rpm at 4° C. The phage solution was then removed, and the wells were washed three times with PBS at room temperature. Antibody raised against M13 conjugated to horseradish peroxidase (Pharmacia) was diluted 1:3000 in PBS-Tween and added to each well (100 µl/well). Incubation was for 1 hr at room temperature, followed by washing with PBS-(0.5%) Tween 3 times as described. Color was developed by addition of ABTS solution (100 µl/well; Boehringer, Indianapolis, Ind.). Plates were analyzed at 405 nm. A clone was considered "positive" if the $A405$ of the well was $\geq$2-fold over background.

[1] = molecular target: T2, lactate dehydrogenase (LDH)
T2 construct: Coated at 500 ng/well as non-specific target; also called LDH polypeptide
Description: as §1

[2] = molecular target: T3, antibody raised against ETAG
T3 construct: Coated at 500 ng/well; also called E-tag antibody
Description: as §1

Row | Binder | DGI-2 (OD) (DGI-2 polypeptide) | DGI-2/LDH (DGI-2 polypeptide) [ratio] | LDH (OD) [1] [OD] | ETAG (OD) [2] [OD]
1 | CCAWNGVGVGGLGWRVVVGPAAAGAPVPYPDPLEPRP [DGI-2-20F-PP-H4] | 2.1 | 2.2 | 1 | 32.9
2 | RDHRYVGWGRATFRHDQSVWAAAGAPVPYPDPLEPRP [DGI-2-20F-PP-H1] | 1.7 | 1.4 | 1.2 | 1.4
3 | GAIRLSGAAWTASRTGGRASAAAGAPVPYPDPLEPRP [DGI-2-20F-PP-E7] | 1.6 | 1.8 | 0.9 | 21.5
4 | LFRFSGTGMASLPCVGWHLVAAAGAPVPYPDPLEPRP [DGI-2-20F-PP-B6] | 2.5 | 2.6 | 1 | 37
5 | GGSLPVKSGQLVTCCTSKGGAAAGAPVPYPDPLEPRP [DGI-2-20F-PP-F5] | 2.3 | 2.5 | 0.9 | 16.3
6 | RRFVRCSVPVALRSAVPVSVAAAGAPVPYPDPLEPRP [DGI-2-20F-PP-A10] | 2.4 | 2.4 | 1 | 16.3
7 | VGHLLSRCAHHSPGMGASPYGAAAGAPVPYPDPLEPRP [DGI-2-20F-PP-B11] | 2.6 | 2.7 | 1 | 40.8
8 | VGQSSGDARPLANLFVFPFVAAAGAPVPYPDPLEPRP [DGI-2-20F-PP-F12] | 2.1 | 2.3 | 0.9 | 47.6
9 | FRVALLSVSAGPCEGSGNTAAAGAPVPYPDPLEPRP [DGI-2-20F-PP-H7] | 1.8 | 2.1 | 0.8 | 3.7
10 | SVTISTSCRTGCPAGYLRRDAAAGAPVPYPDPLEPRP [DGI-2-20F-PP-D2] | 2.2 | 3.1 | 0.7 | 30.8
11 | SAFGCPLPRALGGGGARFYAAAAGAPVPYPDPLEPRP [DGI-2-20F-PP-E11] | 2 | 2.2 | 0.9 | 15.2
12 | VQSGRDLGGLLRGGTGTEASPAAAGAPVPYPDPLEPRP [DGI-2-20F-PP-D3] | 2.2 | 2.4 | 0.9 | 15
13 | RGVNSDMPRLYICRADGQGQAAAGAPVPYPDPLEPRP [DGI-2-20F-PP-H6] | 1.6 | 1.9 | 0.8 | 18.9
14 | TFTRDVAGPAVSFVRLHSWNAAAGAPVPYPDPLEPRP [DGI-2-20F-PP-A9] | 2.7 | 2.3 | 1.2 | 40.8
15 | VSGVPDGSMRAAQLASGYWCAAAGAPVPYPDPLEPRP [DGI-2-20F-PP-G2] | 2.4 | 2.1 | 1.1 | 5.6
16 | DRHRAFVAEGLDGFRHSTGVAAAGAPVPYPDPLEPRP [DGI-2-20F-PP-D4] | 2.6 | 2.3 | 1.1 | 44
17 | WVVALRRIRLGLRRGVECLLAAAGAPVPYPDPLEPRP [DGI-2-20F-PP-D5] | 2.7 | 2.3 | 1.2 | 33.6
18 | LLLPVRWRDAQPRSLLMEWIAAAGAPVPYPDPLEPRP [DGI-2-20F-PP-F8] | 2 | 1.9 | 1.1 | 7.6

Row | Binder | DGI-2 (OD) (DGI-2 polypeptide) | DGI-2/LDH (DGI-2 polypeptide) [ratio] | LDH (OD) [1] [OD] | ETAG (OD) [2] [OD]
19 | TPVAISIPAGVCSTSVCGRDAAAGAPVPYPDPLEPRP [DGI-2-20F-PP-C11] | 2.4 | 2.6 | 0.9 | 3.2
20 | GASRVVDVGWRFWGKLWQRSAAAGAPVPYPDPLEPRP [DGI-2-20F-PP-G5] | 2.4 | 2 | 1.2 | 27.7
21 | MGADTCMGGKMPFDQMFGAVAAAGAPVPYPDPLEPRP [DGI-2-20F-PP-E10] | 2 | 1.7 | 1.2 | 44.6
22 | FGSTAYADMLSQFRKFAMNISAAAGAPVPYPDPLEPRP [DGI-2-20F-PP-E1] | 1.8 | 1.9 | 1 | 33.4
23 | RQRSGGRWVVDRVTRVASTSPAAAGAPVPYPDPLEPRP [DGI-2-20F-PP-B12] | 2.3 | 2.2 | 1.1 | 1.9
24 | GGDLGEQGVQLCPDVVRGGSLAAAGAPVPYPDPLEPRP [DGI-2-20F-PP-A7] | 2.6 | 2.8 | 0.9 | 42.2
25 | RISVGQCGTSRCGGGRRGGGAAAGAPVPYPDPLEPRP [DGI-2-20F-PP-D1] | 2 | 1.9 | 1.1 | 3
26 | VTGTRFRGFAVACVRMGTWHAAAGAPVPYPDPLEPRP [DGI-2-20F-PP-F2] | 2.4 | 2.5 | 1 | 1.9
27 | CYLSRLFRSGQGIGQFGHVEAAAGAPVPYPDPLEPRP [DGI-2-20F-PP-A82] | 2.5 | 2.3 | 1.1 | 16.5
28 | SVSGGGVFGTGGRVRHQVSGAAAGAPVPYPDPLEPRP [DGI-2-20F-PP-C5] | 2.2 | 2.4 | 0.9 | 33.9
29 | EGQRVVFLFGALVAGLCWRDRAAAGAPVPYPDPLEPRP [DGI-2-20F-PP-F3] | 2.6 | 2.2 | 1.1 | 18.7
30 | KVWGCGARRGWERLGHLNQVAAAGAPVPYPDPLEPRP [DGI-2-20F-PP-B10] | 1.9 | 2.4 | 0.8 | 27.1
31 | FGRDGDGIQRRQGGFSWVGDRAAAGAPVPYPDPLEPRP [DGI-2-20F-PP-E2] | 1.7 | 2.4 | 0.7 | 11.6
32 | PVYRVAMCRISVGCSAGAWFAAAGAPVPYPDPLEPRP [DGI-2-20F-PP-C12] | 2.5 | 2.9 | 0.9 | 36.4
33 | SLLCVVCRPVSGGRALGGVPAAAGAPVPYPDPLEPRP [DGI-2-20F-PP-B42] | 2.4 | 2.5 | 1 | 21.5
34 | VVGYAQGDGLEGGLGSSRDGSAAAGAPVPYPDPLEPRP [DGI-2-20F-PP-D8] | 2.3 | 2.2 | 1.1 | 2.6
35 | SRGMAEAQFSAWPVLAVFPLAAAGAPVPYPDPLEPRP [DGI-2-20F-PP-H8] | 1.6 | 1.9 | 0.9 | 32.4
